Several values for one entry are separate records, joined by “and”; a condition that tells them apart may be missing. Equal values may be shown once.
Experiments:
[1] = molecular target: PrP^C, non-pathogenic human prion protein, from normal brain homogenate (human) (UniProt P04156)
[2] = molecular target: PrP^Sc, pathogenic conformer of the human prion protein, from vCJD brain homogenate (human) (UniProt P04156)
[3] = molecular target: PrP^Sc, pathogenic conformer of the human prion protein, from vCJD brain homogenate (human) (UniProt P04156); remark: listed apart in the source
[4] = molecular target: aggregated Aβ42 from Alzheimer's disease brain homogenate (human) (UniProt P05067)
[5] = molecular target: tau of normal human brain homogenate (native) (human) (UniProt P10636)

For “PSR1 (peptoid reagent XIIb attached to magnetic beads) (designed binder)”, the ELISA signal after pulldown (RLU, ave) [1] was 9.9 RLU, the ELISA signal after pulldown (RLU, ave) [2] was 53 RLU and the pulldown efficiency [3] was 100%. For the same substance, the recovery [4] was 100%, the tau ELISA signal after pulldown, mean of 3 [5] was 0.11 and 0.12 and the tau ELISA signal after pulldown, replicate [5] was 0.11 and 0.12 and 0.13.

Source: US20110189692A1
